# Reference: patent publication US20070134256A1 (US Dept. of Health and Human Services, published 2007)
# Assays:
# [1] = target: T1, dengue type 2 virus (DENV-2), prototype New Guinea C strain, virions (dengue type 2 virus, UniProt P14340 281-775; P14340 115-280); assay: ELISA, virion-coated plate
# [2] = target: T2, dengue type 3 virus (DENV-3), strain H87, virions (dengue type 3 virus, UniProt P27915 281-773; P27915 115-280); assay: ELISA, virion-coated plate
# [3] = target: T3, dengue type 1 virus (DENV-1), Western Pacific strain, virions (dengue type 1 virus, UniProt P17763 281-775; P17763 115-280); assay: ELISA, virion-coated plate
# [4] = target: T4, dengue type 4 virus (DENV-4), strain 814669, virions (dengue type 4 virus, UniProt P09866 280-774; P09866 114-279); assay: cell-based or functional assay
# DENV-4 prM glycoprotein = DENV-4 prM glycoprotein (dengue type 4 virus, UniProt P09866 114-279); assay: radioimmunoprecipitation of prM expressed alone by recombinant vaccinia virus
# [5] = target: T1, dengue type 2 virus (DENV-2), prototype …; assay: ELISA, virion-coated plate, Fab from ~300 µg/ml
# [6] = target: T2, dengue type 3 virus (DENV-3), strain …; assay: ELISA, virion-coated plate, Fab from ~300 µg/ml
# [7] = target: T4, dengue type 4 virus (DENV-4), strain …; assay: ELISA, virion-coated plate, Fab from ~300 µg/ml
# [8] = target: T3, dengue type 1 virus (DENV-1), Western …; assay: ELISA, virion-coated plate, Fab from ~300 µg/ml
binder,measurement,setting,value
"chimpanzee Fab 5D9 (Fab, V domains shown) VH: EVQLLESGPGLVKPSETLSLTCTVSGGSISDFYWSWLRQSPGKGLEWIGVAHSRVSAYYNPSLKSRVTISVDTSKNQLSLRLSAVTAADAALYYCARQGTGTTGVSEDPFDLWGQGTKVIVSL VL: ELTQSPSSLSASVGDRVTITCRASQGISNRLNWYQQKPGQGPKFLMYDASSLVSGVPSRFSGSGSGTDFTLTISSLQPEDFAVYYCQQFNSYPLTFGGGTKLEIKR",binding result,[1],no binding
same,binding result,[2],no binding
same,binding result,[3],no binding
same,PRNT50 titer,[4],0.58 µg/mL
same,binding result,DENV-4 prM glycoprotein,no binding
same,ELISA titer of Fab binding,[5],< 1 log10 of reciprocal dilution
same,ELISA titer of Fab binding,[6],< 1 log10 of reciprocal dilution
same,ELISA titer of Fab binding,[7],3.41 log10 of reciprocal dilution
same,ELISA titer of Fab binding,[8],< 1 log10 of reciprocal dilution
